We go through 1 molecule from patent US5932697A, “Synthetic antifreeze peptide” (Virginia Tech Intellectual Properties, Inc., priority 1991, dated 1999).

The subject of this series is JM109 (DE3). The experiment in a line: Studies of cell viability in strains expressing WF8R fusion proteins. Conditions: JM109 (DE3) [pX28] or [pX284], intracellular expression as P10 fusion; applicants' conclusion from cell viability studies. Format: cell-based, E. coli. The text has this: The pX28 and pX284 were transformed into JM109 (DE3). The proteins produced in either the JM109 (DE3) [pX28] or in the JM109 (DE3) [pX284] after induction by IPTG in mid- or late-logarithmic growth phase, have been analyzed by sodium dodecyl sulfate (SDS)--polyacrylamide gel electrophoresis (SDS-PAGE). […] Studies of cell viability in these strains have shown that both strains are adversely affected with respect to growth and stability of the plasmid (these effects were more pronounced in the pX28 harboring strain). […] To avert this problem the applicants decided to protect the fusion protein from intracellular degradation, as well as to protect the cells from the toxicity of WF8R, by adding to the fusion a C-terminal end derived from E. coli β-galactosidase.

B1: WF8R: synthetic 98 amino acid antifreeze peptide with eight eleven-amino-acid repeats, modeled on winter flounder AFP, expressed in E. coli (protein)
chain: MSTASDAAAAAAATAATAAAAAAATAATAAAAAAATAATAAAAAAATAATAAAAAAATAATAAAAAAATAATAAKAAALTAANAAAAAAATAAAAARG
With B1, the “toxicity to the cells (growth and stability of the plasmid adversely affected)” value is listed as “toxic to the cells”.
